To fix the notation:
B1: Tethering factor for nuclear proteasome cut8 (Schizosaccharomyces pombe (strain ATCC 38366 / 972)), P38937 (parent)
chain: METLSYSQIKKRKADFDEDISKRARQLPVGEQLPLSRLLQYSDKQQLFTILLQCVEKHPDLARDIRGILPAPSMDTCVETLRKLLINLNDSFPYGGDKRGDYAFNRIREKYMAVLHALNDMVPCYLPPYSTCFEKNITFLDAATNVVHELPEFHNPNHNVYKSQAYYELTGAWLVVLRQLEDRPVVPLLPLEELEEHNKTSQNRMEEALNYLKQLQKNEPLVHERSHTFQQTNPQNNFHRHTNSMNIGNDNGMGWHSMHQYI
partner: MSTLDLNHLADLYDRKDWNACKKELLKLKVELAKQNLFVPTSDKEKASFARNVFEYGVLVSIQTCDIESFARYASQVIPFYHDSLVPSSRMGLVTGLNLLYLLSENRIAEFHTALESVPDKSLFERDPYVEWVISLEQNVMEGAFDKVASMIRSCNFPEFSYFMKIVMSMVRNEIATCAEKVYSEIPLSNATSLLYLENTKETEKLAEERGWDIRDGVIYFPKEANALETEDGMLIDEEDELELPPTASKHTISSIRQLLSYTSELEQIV
B2: Tethering factor for nuclear proteasome cut8 (Schizosaccharomyces pombe (strain ATCC 38366 / 972)), P38937 (parent)
chain: B1 chain
partner: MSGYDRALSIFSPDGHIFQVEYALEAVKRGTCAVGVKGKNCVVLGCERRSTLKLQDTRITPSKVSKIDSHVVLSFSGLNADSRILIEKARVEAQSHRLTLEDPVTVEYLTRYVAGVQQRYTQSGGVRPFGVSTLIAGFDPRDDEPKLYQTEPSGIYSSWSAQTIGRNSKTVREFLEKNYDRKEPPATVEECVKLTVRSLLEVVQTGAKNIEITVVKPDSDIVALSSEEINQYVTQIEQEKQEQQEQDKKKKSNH

In the first test the parent is B1. The settings on record: with rpn12_schpo rpn12, P50524.
Turning to METLSYSQIRRRRADFDEDISRRARQLPVGEQLPLSRLLQYSDRQQLFTILLQCVERHPDLARDIRGILPAPSMDTCVETLRKLLINLNDSFPYGGDKRGDYAFNRIREKYMAVLHALNDMVPCYLPPYSTCFEKNITFLDAATNVVHELPEFHNPNHNVYKSQAYYELTGAWLVVLRQLEDRPVVPLLPLEELEEHNKTSQNRMEEALNYLKQLQKNEPLVHERSHTFQQTNPQNNFHRHTNSMNIGNDNGMGWHSMHQYI [K10R;K11R;K13R;K22R;K44R;K57R], the “effect of a mutation on the interaction” value is given as “decreasing interaction”.

In another test the parent is B2. The settings on record: with psa4_yeast PRE6, P40303.
For the variant METLSYSQIRRRRADFDEDISRRARQLPVGEQLPLSRLLQYSDRQQLFTILLQCVERHPDLARDIRGILPAPSMDTCVETLRKLLINLNDSFPYGGDKRGDYAFNRIREKYMAVLHALNDMVPCYLPPYSTCFEKNITFLDAATNVVHELPEFHNPNHNVYKSQAYYELTGAWLVVLRQLEDRPVVPLLPLEELEEHNKTSQNRMEEALNYLKQLQKNEPLVHERSHTFQQTNPQNNFHRHTNSMNIGNDNGMGWHSMHQYI [K10R;K11R;K13R;K22R;K44R;K57R], the “effect of a mutation on the interaction” value is “decreasing interaction”.

The record behind these values is IntAct's records for PubMed 16096059.
